Measured values from publication PMC9352680, “A comprehensive thermodynamic model for RNA binding by the Saccharomyces cerevisiae Pumilio protein PUF4”.
Positions count from the first letter of the chain named. Names may count otherwise.

Molecular target: T1, PUF4 RNA-binding domain (Saccharomyces cerevisiae, UniProt P25339 537-888)
T1 sequence: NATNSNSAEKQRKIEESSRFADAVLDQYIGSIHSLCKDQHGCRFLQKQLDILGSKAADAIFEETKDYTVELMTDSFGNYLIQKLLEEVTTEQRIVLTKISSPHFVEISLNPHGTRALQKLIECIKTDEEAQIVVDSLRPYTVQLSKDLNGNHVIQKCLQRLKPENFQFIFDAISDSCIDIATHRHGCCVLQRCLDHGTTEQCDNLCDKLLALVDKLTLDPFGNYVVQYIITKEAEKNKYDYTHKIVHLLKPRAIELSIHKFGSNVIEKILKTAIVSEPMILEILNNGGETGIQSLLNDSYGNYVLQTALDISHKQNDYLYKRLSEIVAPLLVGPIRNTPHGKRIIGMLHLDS
Assay: Mg; RNA-MaP; 20 mM Na-HEPES pH 7.4, 30 mM KOAc, 0.75 mM MgCl2, 0.1% Tween-20, 5% glycerol, 0.1 mg/mL BSA, 2 mM DTT; 25 C; 0.0125-409.6 nM protein
Conditions: tags: N-His6-TEV cleaved; C-SNAP kept, Cy3B-labelled; label: tethered on chip by stalled RNA polymerase

B1: Ia_S4_P3E.1_K3.1_C3.1_H3.1_A3.1_F3.1_[A8G]_T3.1 (ssRNA)
RNA: UUUGACAACUGAUCGUUCUUUCUUGUAUAUGUUCUUUCUCGAUCAGUUGUCUUU
  Kd: 8.32 nM

B2: Ib_S4_P3E.1_K3.1_C3.1_H3.1_[A4C]_A3.1_[A6T]_F3.1_T3.1 (ssRNA)
RNA: B1 RNA with A27C, A29U, G31A
  Kd: 1140 nM

B3: Ib_S4_P3E.1_K3.1_C3.1_H3.1_A3.1_[T5C]_[A6C]_F3.1_T3.1 (ssRNA)
RNA: B1 RNA with U28C, A29C, G31A
  Kd: 14.8 nM

B4: Ic_S4_P3E.1_K3.1_C3.1_H3.1_A3.1_[T5C]_[A6T]_F3.1_T3.1 (ssRNA)
RNA: B1 RNA with U28C, A29U, G31A
  Kd: 16.8 nM

B5: Ib_S4_P4E.1_K4.1_C4.1_H4.1_A4.1_F4.1_[T8G]_[A9C]_T4.1 (ssRNA)
RNA: UUUGACAACUGAUCGUUCUUUCUUGUAUAUGCUUCUUUCUCGAUCAGUUGUCUUU
  Kd: 20.6 nM

B6: Ib_S4_P4E.1_K4.1_C4.1_H4.1_A4.1_F4.1_[T8C]_[A9G]_T4.1 (ssRNA)
RNA: B5 RNA with G31C, C32G
  Kd: 17.1 nM

B7: Ib_S4_P4E.1_K4.1_C4.1_H4.1_A4.1_F4.1_[T8A]_[A9G]_T4.1 (ssRNA)
RNA: B5 RNA with G31A, C32G
  Kd: 9.97 nM

B8: Ic_S4_P4E.1_K4.1_C4.1_H4.1_A4.1_F4.1_[T8A]_[A9C]_T4.1 (ssRNA)
RNA: B5 RNA with G31A
  Kd: 6.29 nM

B9: Ib_S4_P4E.1_K4.1_C4.1_H4.1_[T1G]_A4.1_F4.1_[T8C]_T4.1 (ssRNA)
RNA: B5 RNA with U24G, G31C, C32A
  Kd: > 2300 nM

B10: Ib_S4_P4E.1_K4.1_C4.1_H4.1_[T1C]_A4.1_F4.1_[T8C]_T4.1 (ssRNA)
RNA: B5 RNA with U24C, G31C, C32A
  Kd: 652 nM

B11: Ib_S4_P4E.1_K4.1_C4.1_H4.1_[T1G]_A4.1_F4.1_[T8A]_T4.1 (ssRNA)
RNA: B5 RNA with U24G, G31A, C32A
  Kd: 1410 nM

B12: Ia_S4_P3E.1_K3.1_C3.1_H3.1_A3.1_F3.1_[A8C]_T3.1 (ssRNA)
RNA: B1 RNA with G31C
  Kd: 12.3 nM

B13: Ib_S4_P4E.1_K4.1_C4.1_H4.1_[T1A]_A4.1_F4.1_[T8A]_T4.1 (ssRNA)
RNA: B5 RNA with U24A, G31A, C32A
  Kd: 1680 nM

B14: Ib_S4_P4E.1_K4.1_C4.1_H4.1_[G2C]_A4.1_F4.1_[T8C]_T4.1 (ssRNA)
RNA: B5 RNA with G25C, G31C, C32A
  Kd: 666 nM

B15: Ib_S4_P4E.1_K4.1_C4.1_H4.1_[A4G]_A4.1_F4.1_[T8C]_T4.1 (ssRNA)
RNA: B5 RNA with A27G, G31C, C32A
  Kd: 24.4 nM

B16: Ib_S4_P4E.1_K4.1_C4.1_H4.1_[A4G]_A4.1_F4.1_[T8A]_T4.1 (ssRNA)
RNA: B5 RNA with A27G, G31A, C32A
  Kd: 6.19 nM

B17: Ib_S4_P4E.1_K4.1_C4.1_H4.1_[A4C]_A4.1_F4.1_[T8A]_T4.1 (ssRNA)
RNA: B5 RNA with A27C, G31A, C32A
  Kd: 458 nM

B18: Ib_S4_P4E.1_K4.1_C4.1_H4.1_[T1G]_A4.1_F4.1_[A9G]_T4.1 (ssRNA)
RNA: B5 RNA with U24G, G31U, C32G
  Kd: 1710 nM

B19: Ib_S4_P4E.1_K4.1_C4.1_H4.1_[T1A]_A4.1_F4.1_[A9G]_T4.1 (ssRNA)
RNA: B5 RNA with U24A, G31U, C32G
  Kd: 2230 nM

B20: Ib_S4_P4E.1_K4.1_C4.1_H4.1_[T1C]_A4.1_F4.1_[A9C]_T4.1 (ssRNA)
RNA: B5 RNA with U24C, G31U
  Kd: 1020 nM

B21: Ib_S4_P4E.1_K4.1_C4.1_H4.1_[G2A]_A4.1_F4.1_[A9G]_T4.1 (ssRNA)
RNA: B5 RNA with G25A, G31U, C32G
  Kd: 329 nM

B22: Ib_S4_P4E.1_K4.1_C4.1_H4.1_[G2C]_A4.1_F4.1_[A9C]_T4.1 (ssRNA)
RNA: B5 RNA with G25C, G31U
  Kd: 1530 nM

B23: Ia_S4_P3E.1_K3.1_C3.1_H3.1_[T1G]_A3.1_F3.1_T3.1 (ssRNA)
RNA: B1 RNA with U24G, G31A
  Kd: 1280 nM

B24: Ib_S4_P4E.1_K4.1_C4.1_H4.1_[T3C]_A4.1_F4.1_[A9G]_T4.1 (ssRNA)
RNA: B5 RNA with U26C, G31U, C32G
  Kd: > 2300 nM

B25: Ib_S4_P4E.1_K4.1_C4.1_H4.1_[T3C]_A4.1_F4.1_[A9C]_T4.1 (ssRNA)
RNA: B5 RNA with U26C, G31U
  Kd: > 2300 nM

B26: Ib_S4_P4E.1_K4.1_C4.1_H4.1_[T3C]_A4.1_F4.1_[A9T]_T4.1 (ssRNA)
RNA: B5 RNA with U26C, G31U, C32U
  Kd: 1000 nM

B27: Ib_S4_P4E.1_K4.1_C4.1_H4.1_[A4C]_A4.1_F4.1_[A9G]_T4.1 (ssRNA)
RNA: B5 RNA with A27C, G31U, C32G
  Kd: 252 nM

B28: Ib_S4_P4E.1_K4.1_C4.1_H4.1_[A4G]_A4.1_F4.1_[A9C]_T4.1 (ssRNA)
RNA: B5 RNA with A27G, G31U
  Kd: 12.1 nM

B29: Ib_S4_P4E.1_K4.1_C4.1_H4.1_[A4C]_A4.1_F4.1_[A9C]_T4.1 (ssRNA)
RNA: B5 RNA with A27C, G31U
  Kd: 501 nM

B30: Ib_S4_P4E.1_K4.1_C4.1_H4.1_[A4T]_A4.1_F4.1_[A9C]_T4.1 (ssRNA)
RNA: B5 RNA with A27U, G31U
  Kd: 406 nM

B31: Ib_S4_P4E.1_K4.1_C4.1_H4.1_[A4C]_A4.1_F4.1_[A9T]_T4.1 (ssRNA)
RNA: B5 RNA with A27C, G31U, C32U
  Kd: 268 nM

B32: Ib_S4_P4E.1_K4.1_C4.1_H4.1_A4.1_[T5C]_F4.1_[T8C]_T4.1 (ssRNA)
RNA: B5 RNA with U28C, G31C, C32A
  Kd: 8.87 nM

B33: Ib_S4_P4E.1_K4.1_C4.1_H4.1_A4.1_[T5A]_F4.1_[T8C]_T4.1 (ssRNA)
RNA: B5 RNA with U28A, G31C, C32A
  Kd: 78.4 nM

B34: Ia_S4_P3E.1_K3.1_C3.1_H3.1_[T1A]_A3.1_F3.1_T3.1 (ssRNA)
RNA: B1 RNA with U24A, G31A
  Kd: 819 nM

B35: Ib_S4_P4E.1_K4.1_C4.1_H4.1_A4.1_[T5A]_F4.1_[T8A]_T4.1 (ssRNA)
RNA: B5 RNA with U28A, G31A, C32A
  Kd: 27.4 nM

B36: Ib_S4_P4E.1_K4.1_C4.1_H4.1_A4.1_[A6G]_F4.1_[T8C]_T4.1 (ssRNA)
RNA: B5 RNA with A29G, G31C, C32A
  Kd: 136 nM

B37: Ib_S4_P4E.1_K4.1_C4.1_H4.1_A4.1_[A6C]_F4.1_[T8C]_T4.1 (ssRNA)
RNA: B5 RNA with A29C, G31C, C32A
  Kd: 22.1 nM

B38: Ib_S4_P4E.1_K4.1_C4.1_H4.1_A4.1_[A6T]_F4.1_[T8C]_T4.1 (ssRNA)
RNA: B5 RNA with A29U, G31C, C32A
  Kd: 84.2 nM

B39: Ib_S4_P4E.1_K4.1_C4.1_H4.1_A4.1_[T7G]_F4.1_[T8C]_T4.1 (ssRNA)
RNA: B5 RNA with U30G, G31C, C32A
  Kd: 51.1 nM

B40: Ib_S4_P4E.1_K4.1_C4.1_H4.1_A4.1_[T7A]_F4.1_[T8C]_T4.1 (ssRNA)
RNA: B5 RNA with U30A, G31C, C32A
  Kd: 19.6 nM

B41: Ib_S4_P4E.1_K4.1_C4.1_H4.1_A4.1_[T7C]_F4.1_[T8A]_T4.1 (ssRNA)
RNA: B5 RNA with U30C, G31A, C32A
  Kd: 18.4 nM

B42: Ib_S4_P4E.1_K4.1_C4.1_H4.1_A4.1_[T7A]_F4.1_[T8A]_T4.1 (ssRNA)
RNA: B5 RNA with U30A, G31A, C32A
  Kd: 29.8 nM

B43: Ib_S4_P4E.1_K4.1_C4.1_H4.1_A4.1_[T5A]_F4.1_[A9G]_T4.1 (ssRNA)
RNA: B5 RNA with U28A, G31U, C32G
  Kd: 19.7 nM

B44: Ic_S4_P4E.1_K4.1_C4.1_H4.1_A4.1_[T5C]_F4.1_[A9T]_T4.1 (ssRNA)
RNA: B5 RNA with U28C, G31U, C32U
  Kd: 1.94 nM

B45: Ia_S4_P3E.1_K3.1_C3.1_H3.1_[G2C]_A3.1_F3.1_T3.1 (ssRNA)
RNA: B1 RNA with G25C, G31A
  Kd: 360 nM

B46: Ic_S4_P4E.1_K4.1_C4.1_H4.1_A4.1_[A6C]_F4.1_[A9G]_T4.1 (ssRNA)
RNA: B5 RNA with A29C, G31U, C32G
  Kd: 11.3 nM

B47: Ib_S4_P4E.1_K4.1_C4.1_H4.1_A4.1_[A6T]_F4.1_[A9G]_T4.1 (ssRNA)
RNA: B5 RNA with A29U, G31U, C32G
  Kd: 8.2 nM

B48: Ib_S4_P4E.1_K4.1_C4.1_H4.1_A4.1_[A6G]_F4.1_[A9C]_T4.1 (ssRNA)
RNA: B5 RNA with A29G, G31U
  Kd: 15.5 nM

B49: Ib_S4_P4E.1_K4.1_C4.1_H4.1_A4.1_[A6T]_F4.1_[A9C]_T4.1 (ssRNA)
RNA: B5 RNA with A29U, G31U
  Kd: 17.8 nM

B50: Ib_S4_P4E.1_K4.1_C4.1_H4.1_A4.1_[A6C]_F4.1_[A9T]_T4.1 (ssRNA)
RNA: B5 RNA with A29C, G31U, C32U
  Kd: 10.8 nM

B51: Ic_S4_P4E.1_K4.1_C4.1_H4.1_A4.1_[T7G]_F4.1_[A9G]_T4.1 (ssRNA)
RNA: B5 RNA with U30G, G31U, C32G
  Kd: 13.5 nM

B52: Ib_S4_P4E.1_K4.1_C4.1_H4.1_A4.1_[T7C]_F4.1_[A9C]_T4.1 (ssRNA)
RNA: B5 RNA with U30C, G31U
  Kd: 10.1 nM

B53: Ic_S4_P4E.1_K4.1_C4.1_H4.1_A4.1_[T7C]_F4.1_[A9T]_T4.1 (ssRNA)
RNA: B5 RNA with U30C, G31U, C32U
  Kd: 7 nM

B54: Ib_S4_P4E.1_K4.1_C4.1_H4.1_[T1G]_[G2T]_A4.1_F4.1_T4.1 (ssRNA)
RNA: B5 RNA with U24G, G25U, G31U, C32A
  Kd: 41.2 nM

B55: Ib_S4_P4E.1_K4.1_C4.1_H4.1_[T1C]_[G2C]_A4.1_F4.1_T4.1 (ssRNA)
RNA: B5 RNA with U24C, G25C, G31U, C32A
  Kd: 331 nM

B56: Ia_S4_P3E.1_K3.1_C3.1_H3.1_[A4T]_A3.1_F3.1_T3.1 (ssRNA)
RNA: B1 RNA with A27U, G31A
  Kd: 86.8 nM

B57: Ib_S4_P4E.1_K4.1_C4.1_H4.1_[T1C]_[G2T]_A4.1_F4.1_T4.1 (ssRNA)
RNA: B5 RNA with U24C, G25U, G31U, C32A
  Kd: 401 nM
